# B1: APY-d3-PEG4 (peptide)
# peptide: XPYCVYRXSWSCXXX
# modifications: β-alanine at 1 and 8; disulfide bond Cys4-Cys12 (Cyc (4,12)); three 6-aminohexanoic acid (Ahx) residues and propargyl-glycine (Pra) after Cys12; 30 kDa methoxy-PEG on Pra through a triazole (click chemistry); free C-terminal acid (-OH)
# Key:
# [1] = biological target: EphA4 Fc (human EphA4 Fc, #CJ75, Novoprotein, or mouse EphA4 Fc, #641-A4, R&D Systems/BioTechne) (human or mouse) (UniProt P54764); test: competition ELISA, inhibition of ephrin-A5 AP binding to immobilized EphA4 Fc
# [2] = biological target: EphA4 Fc (human EphA4 Fc, #CJ75, Novoprotein, or mouse EphA4 Fc, #641-A4, R&D Systems/BioTechne) (human or mouse) (UniProt P54764); test: competition ELISA, inhibition of ephrin-A5 AP binding to immobilized EphA4 Fc (Table 2, repeats Table 1)
# EphA4 Fc (human EphA4 Fc, #CJ75, Novoprotein, or mouse EphA4 Fc, #641-A4, R&D Systems/BioTechne) (human or mouse), sequence (P54764 20-547): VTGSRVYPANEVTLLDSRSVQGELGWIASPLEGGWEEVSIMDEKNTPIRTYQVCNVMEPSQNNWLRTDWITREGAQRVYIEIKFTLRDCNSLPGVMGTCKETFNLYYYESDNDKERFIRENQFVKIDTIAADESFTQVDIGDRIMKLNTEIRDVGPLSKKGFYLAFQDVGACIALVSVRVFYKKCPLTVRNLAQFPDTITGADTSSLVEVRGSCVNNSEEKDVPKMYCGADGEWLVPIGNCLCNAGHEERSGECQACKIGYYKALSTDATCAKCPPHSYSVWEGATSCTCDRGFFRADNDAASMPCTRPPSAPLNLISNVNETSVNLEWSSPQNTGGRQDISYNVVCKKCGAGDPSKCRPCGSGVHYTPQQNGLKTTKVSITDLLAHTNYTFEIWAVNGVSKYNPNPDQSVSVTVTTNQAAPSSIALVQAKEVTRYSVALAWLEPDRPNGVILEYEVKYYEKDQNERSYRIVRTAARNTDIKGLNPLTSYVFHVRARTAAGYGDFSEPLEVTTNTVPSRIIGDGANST
binder,measurement,setting,value
B1,IC50,[1],20 nM
same,IC50,[2],20 nM

# — US20260139007A1, “EPHA4 ANTAGONISTS AND USES THEREOF” (SANFORD BURNHAM PREBYS MEDICAL DISCOVERY INSTITUTE, priority 2023, published 2026)
